Experimental data: US20220040297A1 (Chugai, published 2022)

Target: CD3ε homodimer protein (human, UniProt P07766 23-126, limits assumed)
Test: SPR, immobilized CD3ε homodimer;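 note: biacore T200 surface plasmon resonance at 25 °C, antibody variants flowed as analytes over amine-coupled CD3ε homodimer on a CM4 chip, variant binding amount divided by that of GLS3000 antibody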

CD3ε homodimer protein, sequence (P07766 23-126 limits assumed): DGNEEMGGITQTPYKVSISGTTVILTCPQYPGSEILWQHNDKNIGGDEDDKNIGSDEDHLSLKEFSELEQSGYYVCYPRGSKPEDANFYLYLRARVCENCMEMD

ratio of amounts bound (vs GLS3000) | Binder
0.23 | GLS3000 K50A (antibody, name in Kabat numbering, V domains shown, one-arm format as m2) VH: QVQLVESGGGVVQPGRSLRLSCAASGFTFSNAWMHWVRQAPGKGLEWVAQIKAKSNNYATYYAESVKGRFTISRDDSKNSLYLQMNSLKTEDTAVYYCRYVHYGAYYGVDAWGQGTTVTVSS VL: DIVMTQSPLSLPVTPGEPASISCRSSQSLVHSNRNTYLHWYQQKPGQAPRLLIYAVSNRFSGVPDRFSGSGSGTDFTLKISRVEAEDVGVYYCGQGTQVPYTFGQGTKLEIK
0.42 | GLS3000 L27bF (antibody, name in Kabat numbering, V domains shown, one-arm format as m2) VH: QVQLVESGGGVVQPGRSLRLSCAASGFTFSNAWMHWVRQAPGKGLEWVAQIKAKSNNYATYYAESVKGRFTISRDDSKNSLYLQMNSLKTEDTAVYYCRYVHYGAYYGVDAWGQGTTVTVSS VL: DIVMTQSPLSLPVTPGEPASISCRSSQSFVHSNRNTYLHWYQQKPGQAPRLLIYKVSNRFSGVPDRFSGSGSGTDFTLKISRVEAEDVGVYYCGQGTQVPYTFGQGTKLEIK
1.12 | GLS3000 L27bV (antibody, name in Kabat numbering, V domains shown, one-arm format as m2) VH: QVQLVESGGGVVQPGRSLRLSCAASGFTFSNAWMHWVRQAPGKGLEWVAQIKAKSNNYATYYAESVKGRFTISRDDSKNSLYLQMNSLKTEDTAVYYCRYVHYGAYYGVDAWGQGTTVTVSS VL: DIVMTQSPLSLPVTPGEPASISCRSSQSVVHSNRNTYLHWYQQKPGQAPRLLIYKVSNRFSGVPDRFSGSGSGTDFTLKISRVEAEDVGVYYCGQGTQVPYTFGQGTKLEIK
0.19 | GLS3000 K50T (antibody, name in Kabat numbering, V domains shown, one-arm format as m2) VH: QVQLVESGGGVVQPGRSLRLSCAASGFTFSNAWMHWVRQAPGKGLEWVAQIKAKSNNYATYYAESVKGRFTISRDDSKNSLYLQMNSLKTEDTAVYYCRYVHYGAYYGVDAWGQGTTVTVSS VL: DIVMTQSPLSLPVTPGEPASISCRSSQSLVHSNRNTYLHWYQQKPGQAPRLLIYTVSNRFSGVPDRFSGSGSGTDFTLKISRVEAEDVGVYYCGQGTQVPYTFGQGTKLEIK
0.24 | GLS3000 K50Y (antibody, name in Kabat numbering, V domains shown, one-arm format as m2) VH: QVQLVESGGGVVQPGRSLRLSCAASGFTFSNAWMHWVRQAPGKGLEWVAQIKAKSNNYATYYAESVKGRFTISRDDSKNSLYLQMNSLKTEDTAVYYCRYVHYGAYYGVDAWGQGTTVTVSS VL: DIVMTQSPLSLPVTPGEPASISCRSSQSLVHSNRNTYLHWYQQKPGQAPRLLIYYVSNRFSGVPDRFSGSGSGTDFTLKISRVEAEDVGVYYCGQGTQVPYTFGQGTKLEIK
0.23 | GLS3000 K50S (antibody, name in Kabat numbering, V domains shown, one-arm format as m2) VH: QVQLVESGGGVVQPGRSLRLSCAASGFTFSNAWMHWVRQAPGKGLEWVAQIKAKSNNYATYYAESVKGRFTISRDDSKNSLYLQMNSLKTEDTAVYYCRYVHYGAYYGVDAWGQGTTVTVSS VL: DIVMTQSPLSLPVTPGEPASISCRSSQSLVHSNRNTYLHWYQQKPGQAPRLLIYSVSNRFSGVPDRFSGSGSGTDFTLKISRVEAEDVGVYYCGQGTQVPYTFGQGTKLEIK
0.3 | GLS3000 K50P (antibody, name in Kabat numbering, V domains shown, one-arm format as m2) VH: QVQLVESGGGVVQPGRSLRLSCAASGFTFSNAWMHWVRQAPGKGLEWVAQIKAKSNNYATYYAESVKGRFTISRDDSKNSLYLQMNSLKTEDTAVYYCRYVHYGAYYGVDAWGQGTTVTVSS VL: DIVMTQSPLSLPVTPGEPASISCRSSQSLVHSNRNTYLHWYQQKPGQAPRLLIYPVSNRFSGVPDRFSGSGSGTDFTLKISRVEAEDVGVYYCGQGTQVPYTFGQGTKLEIK
0.16 | GLS3000 K50G (antibody, name in Kabat numbering, V domains shown, one-arm format as m2) VH: QVQLVESGGGVVQPGRSLRLSCAASGFTFSNAWMHWVRQAPGKGLEWVAQIKAKSNNYATYYAESVKGRFTISRDDSKNSLYLQMNSLKTEDTAVYYCRYVHYGAYYGVDAWGQGTTVTVSS VL: DIVMTQSPLSLPVTPGEPASISCRSSQSLVHSNRNTYLHWYQQKPGQAPRLLIYGVSNRFSGVPDRFSGSGSGTDFTLKISRVEAEDVGVYYCGQGTQVPYTFGQGTKLEIK
0.24 | GLS3000 K50E (antibody, name in Kabat numbering, V domains shown, one-arm format as m2) VH: QVQLVESGGGVVQPGRSLRLSCAASGFTFSNAWMHWVRQAPGKGLEWVAQIKAKSNNYATYYAESVKGRFTISRDDSKNSLYLQMNSLKTEDTAVYYCRYVHYGAYYGVDAWGQGTTVTVSS VL: DIVMTQSPLSLPVTPGEPASISCRSSQSLVHSNRNTYLHWYQQKPGQAPRLLIYEVSNRFSGVPDRFSGSGSGTDFTLKISRVEAEDVGVYYCGQGTQVPYTFGQGTKLEIK
0.17 | GLS3000 L27bE (antibody, name in Kabat numbering, V domains shown, one-arm format as m2) VH: QVQLVESGGGVVQPGRSLRLSCAASGFTFSNAWMHWVRQAPGKGLEWVAQIKAKSNNYATYYAESVKGRFTISRDDSKNSLYLQMNSLKTEDTAVYYCRYVHYGAYYGVDAWGQGTTVTVSS VL: DIVMTQSPLSLPVTPGEPASISCRSSQSEVHSNRNTYLHWYQQKPGQAPRLLIYKVSNRFSGVPDRFSGSGSGTDFTLKISRVEAEDVGVYYCGQGTQVPYTFGQGTKLEIK
1.19 | GLS3000 L27bI (antibody, name in Kabat numbering, V domains shown, one-arm format as m2) VH: QVQLVESGGGVVQPGRSLRLSCAASGFTFSNAWMHWVRQAPGKGLEWVAQIKAKSNNYATYYAESVKGRFTISRDDSKNSLYLQMNSLKTEDTAVYYCRYVHYGAYYGVDAWGQGTTVTVSS VL: DIVMTQSPLSLPVTPGEPASISCRSSQSIVHSNRNTYLHWYQQKPGQAPRLLIYKVSNRFSGVPDRFSGSGSGTDFTLKISRVEAEDVGVYYCGQGTQVPYTFGQGTKLEIK
0.22 | GLS3000 K50D (antibody, name in Kabat numbering, V domains shown, one-arm format as m2) VH: QVQLVESGGGVVQPGRSLRLSCAASGFTFSNAWMHWVRQAPGKGLEWVAQIKAKSNNYATYYAESVKGRFTISRDDSKNSLYLQMNSLKTEDTAVYYCRYVHYGAYYGVDAWGQGTTVTVSS VL: DIVMTQSPLSLPVTPGEPASISCRSSQSLVHSNRNTYLHWYQQKPGQAPRLLIYDVSNRFSGVPDRFSGSGSGTDFTLKISRVEAEDVGVYYCGQGTQVPYTFGQGTKLEIK
0.94 | GLS3000 K107E (antibody, name in Kabat numbering, V domains shown, one-arm format as m2) VH: QVQLVESGGGVVQPGRSLRLSCAASGFTFSNAWMHWVRQAPGKGLEWVAQIKAKSNNYATYYAESVKGRFTISRDDSKNSLYLQMNSLKTEDTAVYYCRYVHYGAYYGVDAWGQGTTVTVSS VL: DIVMTQSPLSLPVTPGEPASISCRSSQSLVHSNRNTYLHWYQQKPGQAPRLLIYKVSNRFSGVPDRFSGSGSGTDFTLKISRVEAEDVGVYYCGQGTQVPYTFGQGTKLEIE
0.84 | GLS3000 K74T (antibody, name in Kabat numbering, V domains shown, one-arm format as m2) VH: QVQLVESGGGVVQPGRSLRLSCAASGFTFSNAWMHWVRQAPGKGLEWVAQIKAKSNNYATYYAESVKGRFTISRDDSKNSLYLQMNSLKTEDTAVYYCRYVHYGAYYGVDAWGQGTTVTVSS VL: DIVMTQSPLSLPVTPGEPASISCRSSQSLVHSNRNTYLHWYQQKPGQAPRLLIYKVSNRFSGVPDRFSGSGSGTDFTLTISRVEAEDVGVYYCGQGTQVPYTFGQGTKLEIK
0.71 | GLS3000 L27bS (antibody, name in Kabat numbering, V domains shown, one-arm format as m2) VH: QVQLVESGGGVVQPGRSLRLSCAASGFTFSNAWMHWVRQAPGKGLEWVAQIKAKSNNYATYYAESVKGRFTISRDDSKNSLYLQMNSLKTEDTAVYYCRYVHYGAYYGVDAWGQGTTVTVSS VL: DIVMTQSPLSLPVTPGEPASISCRSSQSSVHSNRNTYLHWYQQKPGQAPRLLIYKVSNRFSGVPDRFSGSGSGTDFTLKISRVEAEDVGVYYCGQGTQVPYTFGQGTKLEIK
0.24 | GLS3000 K50L (antibody, name in Kabat numbering, V domains shown, one-arm format as m2) VH: QVQLVESGGGVVQPGRSLRLSCAASGFTFSNAWMHWVRQAPGKGLEWVAQIKAKSNNYATYYAESVKGRFTISRDDSKNSLYLQMNSLKTEDTAVYYCRYVHYGAYYGVDAWGQGTTVTVSS VL: DIVMTQSPLSLPVTPGEPASISCRSSQSLVHSNRNTYLHWYQQKPGQAPRLLIYLVSNRFSGVPDRFSGSGSGTDFTLKISRVEAEDVGVYYCGQGTQVPYTFGQGTKLEIK
0.18 | GLS3000 K50Q (antibody, name in Kabat numbering, V domains shown, one-arm format as m2) VH: QVQLVESGGGVVQPGRSLRLSCAASGFTFSNAWMHWVRQAPGKGLEWVAQIKAKSNNYATYYAESVKGRFTISRDDSKNSLYLQMNSLKTEDTAVYYCRYVHYGAYYGVDAWGQGTTVTVSS VL: DIVMTQSPLSLPVTPGEPASISCRSSQSLVHSNRNTYLHWYQQKPGQAPRLLIYQVSNRFSGVPDRFSGSGSGTDFTLKISRVEAEDVGVYYCGQGTQVPYTFGQGTKLEIK
0.91 | GLS3000 L27bP (antibody, name in Kabat numbering, V domains shown, one-arm format as m2) VH: QVQLVESGGGVVQPGRSLRLSCAASGFTFSNAWMHWVRQAPGKGLEWVAQIKAKSNNYATYYAESVKGRFTISRDDSKNSLYLQMNSLKTEDTAVYYCRYVHYGAYYGVDAWGQGTTVTVSS VL: DIVMTQSPLSLPVTPGEPASISCRSSQSPVHSNRNTYLHWYQQKPGQAPRLLIYKVSNRFSGVPDRFSGSGSGTDFTLKISRVEAEDVGVYYCGQGTQVPYTFGQGTKLEIK
0.17 | GLS3000 L27bD (antibody, name in Kabat numbering, V domains shown, one-arm format as m2) VH: QVQLVESGGGVVQPGRSLRLSCAASGFTFSNAWMHWVRQAPGKGLEWVAQIKAKSNNYATYYAESVKGRFTISRDDSKNSLYLQMNSLKTEDTAVYYCRYVHYGAYYGVDAWGQGTTVTVSS VL: DIVMTQSPLSLPVTPGEPASISCRSSQSDVHSNRNTYLHWYQQKPGQAPRLLIYKVSNRFSGVPDRFSGSGSGTDFTLKISRVEAEDVGVYYCGQGTQVPYTFGQGTKLEIK
0.5 | GLS3000 K50R (antibody, name in Kabat numbering, V domains shown, one-arm format as m2) VH: QVQLVESGGGVVQPGRSLRLSCAASGFTFSNAWMHWVRQAPGKGLEWVAQIKAKSNNYATYYAESVKGRFTISRDDSKNSLYLQMNSLKTEDTAVYYCRYVHYGAYYGVDAWGQGTTVTVSS VL: DIVMTQSPLSLPVTPGEPASISCRSSQSLVHSNRNTYLHWYQQKPGQAPRLLIYRVSNRFSGVPDRFSGSGSGTDFTLKISRVEAEDVGVYYCGQGTQVPYTFGQGTKLEIK
0.71 | GLS3000 L27bM (antibody, name in Kabat numbering, V domains shown, one-arm format as m2) VH: QVQLVESGGGVVQPGRSLRLSCAASGFTFSNAWMHWVRQAPGKGLEWVAQIKAKSNNYATYYAESVKGRFTISRDDSKNSLYLQMNSLKTEDTAVYYCRYVHYGAYYGVDAWGQGTTVTVSS VL: DIVMTQSPLSLPVTPGEPASISCRSSQSMVHSNRNTYLHWYQQKPGQAPRLLIYKVSNRFSGVPDRFSGSGSGTDFTLKISRVEAEDVGVYYCGQGTQVPYTFGQGTKLEIK
